Key:
Conditions in all cases: both partners purified
[1] = target: SARS-CoV-2 Omicron BA.1 spike receptor-binding domain (SARS-CoV-2 Omicron BA.1, S371L | S373P | S375F | Q493R | Q498R | N501Y | Y505H); test: BLI; Octet Red; […] (20 ug/ml) […]; kinetics buffer 1x PBS pH 7.4, 0.01% BSA, 0.002% Tween 20; 1:1 binding model
[2] = target: SARS-CoV-2 Omicron XBB.1.5 spike receptor-binding domain (SARS-CoV-2 Omicron XBB.1.5, strain); test: as above
[3] = target: SARS-CoV-2 Omicron JN.1 spike receptor-binding domain (SARS-CoV-2 Omicron JN.1, strain); test: as above
[4] = target: SARS-CoV-2 Omicron BQ.1.1 spike receptor-binding domain (SARS-CoV-2 Omicron BQ.1.1, strain); test: as above
[5] = target: SARS-CoV-2 Omicron BA.5 spike receptor-binding domain (SARS-CoV-2 Omicron BA.5, S375F | D405N | N501Y | Y505H); test: crystal structure

Measured: binding result

B1: ADI-77310 Fab (Fab, V domains shown)
VH: EVQLVESGGGLVKPGGSLRLSCAASGFTFGSYYMNWVRQAPGKGLEWVSSISEDGYSTYYPDSLKGRFTISRDSAKNSLYLQMNSLRADDTAVYYCARDFGGHTAWAGTGFTYWGQGTLVTVSS
VL: QSVLTQPPSVSGAPGQRITISCTGSSSNIGAGYDVHWYQQLPGTAPKLLIYGSSSRNSGVPDRFSGSKSGTSASLAITGLQAEDEADYYCQSYDSDLSVLYTFGTGTKVTVL
binds: [1]

B2: VYD222 Fab (Fab, V domains shown)
VH: EVQLVESGGGLVKPGGSLRLSCAASGFTFGSYEMNWVRQAPGKGLEWVSSISEDGYSTYYPDSLKGRFTISRDSAKNSLYLQMNSLRADDTAVYYCARDFGGDTAWAGTGFTYWGQGTLVTVSS
VL: QSVLTQPPSVSGAPGQRITISCTGSSSNIGAGYDVHWYQQLPGTAPKLLIYGSSSRNYGVPDRFSGSKSGTSASLAITGLQAEDEADYYCQSYDSDLGVLYTFGTGTKVTVL
binds: all assays above

From doi:10.1101/2025.08.28.672883 (bioRxiv, 2025)
